Source: patent US20250034222A1, “IL-38 VARIANTS” (Monash University, priority 2021, published 2025)
Changes are numbered by the printed parent chain. Names may count otherwise. “Also recorded” adds a separate entry of the source.

B1: ΔT53: Locked homodimer IL-38 variant, T53 deleted (protein, UniProt Q8WWZ1 1-152, looked up, variant T53*)
Interleukin-1 family member 10: MCSLPMARYYIIKYADQKALYTRDGQLLVGDPVADNCCAEKICILPNRGLARKVPIFLGIQGGSRCLACVETEEGPSLQLEDVNIEELYKGGEEATRFTFFQSSSGSAFRLEAAAWPGWFLCGPAEPQQPVQLTKESEPSARTKFYFEQSW
B2: IL-38 (A51D): Variant of IL-38 that forms monomer; SNP rs6743376, mutation at residue 51 (A51D), residues 3-152 (protein)
chain: SLPMARYYIIKYADQKALYTRDGQLLVGDPVADNCCAEKICILPNRGLDRTKVPIFLGIQGGSRCLACVETEEGPSLQLEDVNIEELYKGGEEATRFTFFQSSSGSAFRLEAAAWPGWFLCGPAEPQQPVQLTKESEPSARTKFYFEQSW
B3: T53N: Variant of IL-38 T53N with increased capacity to form monomer, residues 3-152 (protein)
chain: B2 chain with D49A, T51N
B4: V55Q: Variant of IL-38 V55Q with increased capacity to form monomer, residues 3-152 (protein)
chain: B2 chain with D49A, V53Q
B5: V55T: Variant of IL-38 V55T with increased capacity to form monomer, residues 3-152 (protein)
chain: B2 chain with D49A, V53T
B6: WT IL-38: Wild-type IL-38, residues 3-152, alanine at position 51 (called D51A) (protein)
chain: B2 chain with D49A

How the values were obtained:
[1] = SEC analysis of monomer:dimer proportion of IL-38 variants upon purification; type: physicochemical; details: for capacity to form a homodimer / monomer: SEC upon purification, FIG. 11
Protocol: Recombinant IL-38 variants were expressed in BL21-CodonPlus(DE3)-RIL cells (Stratagene) by 0.5 mM IPTG induction (OD600 0.8) overnight at 18° C. Cells expressing IL-38 variants were lysed by sonication in 50 mM Tris-HCl (pH 8.0), 500 mM NaCl, 3 mM β-mercaptoethanol, and 30 mM imidazole. Cells were clarified by centrifugation, filtered through a 0.8 μm membrane, and bound to Ni-NTA resin (Qiagen) for 1 hour at 4° C. on a rotating platform. The resin was washed with 300 ml of 50 mM Tris-HCl (pH 8.0), 500 mM NaCl, 3 mM β-mercaptoethanol, and 30 mM imidazole. The protein was eluted from the Ni-NTA resin (Qiagen) in a buffer containing 50 mM Tris-HCl (pH 8.0), 500 mM NaCl, 3 mM β-mercaptoethanol, and 400 mM imidazole. Protein was further purified on a Superdex 75 Increase 10/300 GL column (Cytiva Life Sciences) in 10 mM HEPES (pH 7.2), 150 mM NaCl, and 2 mM DTT.
The number and elution volume of the elution peaks are indicative of whether the size of the recombinant protein corresponds to monomeric or dimeric IL-38 conformations or both conformations. The proportion of monomer: dimer for each mutant (FIGS. 9 and 11) were calculated by comparing the area under the monomer and dimer peaks from three individual purifications.

[2] = Analytical SEC of IL-38 variants upon extended incubation; type: physicochemical; details: 0.165 mg/ml, 37° C., 16 hours, Sorensen's phosphate buffer pH 7.0, 5% glycerol
Protocol: To examine the monomer-dimer equilibrium upon extended incubation, indicated IL-38 variants (residues 3-152, C-terminal His6 tag) were incubated at 0.165 mg/ml and 37° C. for 16 hours in Sorensen's phosphate buffer (0.13 M, pH 7.0) with 5% (v/v) glycerol. The monomer: dimer proportion was examined by analytical SEC on a Superdex 75 Increase 10/300 GL column (Cytiva Life Sciences).

[3] = test system: IRF3/7; assay: Poly (I:C)-induced IRF3/7 Quanti-Luc in A549-Dual reporter cells; type: cell-based, Human; details: 1 ng/ml Poly (I:C) LMW, 100 nM/l to 100 fM/l variant, 20 h, dexamethasone 5 nM benchmark
Protocol: FIG. 17: IL-38-Fc reduces Poly (I:C)-induced IRF3/7 Quanti-Luc in Human NF-kB-SEAP & IRFLuc Reporter A549-Dual cells from Invivogen (lung epithelial cells). A549-Dual cells were pretreated for 1 h with lipofectamine and (1 ng/ml) Poly (I:C) low molecular weight (LMW) and then stimulated dose dependently (A) 100 nM/l, (B) 1 nM/l, (C) 10 pM/l, (D) 100 fM/l with different IL-38 variants or dexamethasone (5 nM) as benchmark for 20 h. […]
6 μl of A549 Dual cell supernatants or plain stimulation media (background control) and 15 μl of QUANTI-Luc™ solution (InvivoGen) were added to a 384-well plate (Opti-plate-384, PerkinElmer, #6007290) and immediately measured as per manufacturer's instructions. After background subtraction, the %-change in luciferase activity of IL-38 variants (1 nm/l)+Poly (I:C) treated conditions over poly (I:C)+vehicle-treated cells were calculated ([…] of cells treated with poly (I:C)+vehicle=100%).

[4] = SEC, area under monomer and dimer peaks

Row | Molecule | capacity to form a homodimer / monomer [1] | monomer-dimer equilibrium upon extended incubation [2] | reduction in poly (I:C)-induced IRF3/7 (Quanti-Luc) [3] | dimer formed upon purification [1, 4] [%] | monomer upon purification [1, 4] [%]
1 | B1 | stable locked dimer | stable as a dimer | only marginal reduction |  | 
2 | B2 | reduced capacity to form a homodimer | more stable monomer; also recorded: stable monomer |  |  | 
3 | B3 | reduced capacity to form a homodimer |  |  |  | 
4 | B4 | reduced capacity to form a homodimer |  |  |  | 
5 | B5 | reduced capacity to form a homodimer |  |  |  | 
6 | B6 |  | slow equilibrium between the two states | slightly less potent than A51D (non-fused) IL-38 | ~20 | ~80
